Measurements reported in patent US7897729.

Molecular target: FcγRIII (CD16) (human) (UniProt P08637)
Assay: cell-based or functional assay

Sequence of FcγRIII (CD16) (human) (P08637 17-254): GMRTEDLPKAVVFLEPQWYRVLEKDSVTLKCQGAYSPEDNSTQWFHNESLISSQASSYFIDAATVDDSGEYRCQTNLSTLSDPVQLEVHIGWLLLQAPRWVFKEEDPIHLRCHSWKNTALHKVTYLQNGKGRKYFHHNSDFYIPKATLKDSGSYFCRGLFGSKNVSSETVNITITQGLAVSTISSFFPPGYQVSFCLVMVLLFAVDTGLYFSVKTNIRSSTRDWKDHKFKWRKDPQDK

IFN-γ secretion from PBMC, immobilized anti-CD16 mAb (10 µg/ml) + IL-2 [ng/mL]	TNF-α secretion from PBMC, immobilized anti-CD16 mAb (10 µg/ml) + IL-2 [ng/mL]	proliferative response of PBMC ([3H]thymidine), IL-2 and immobilized anti-CD16 mAb [CPM]	proliferative response of PBMC ([3H]thymidine), immobilized anti-CD16 mAb alone, no IL-2 [CPM]	IFN-γ secretion from PBMC, aggregated IgG (40 µg/ml) + IL-2 [ng/mL]	TNF-α secretion from PBMC, aggregated IgG (40 µg/ml) + IL-2 [ng/mL]	fold induction of PBMC proliferation over IL-2, 125 µg/mL of AIG [fold]	proliferative response of PBMC, 125 µg/mL of AIG and IL-2 [CPM]	Substance
9.85	3.32	15500	592					anti-CD16 mAb 3G8 (antibody)
				13	2.46	16	17400	heat aggregated IgG (AIG)
